Measured values published in US10100120B2, “Antibody which specifically binds to human CRTH2” (KYOWA HAKKO KIRIN CO., LTD, priority 2015, dated 2018).
Numbering of substitutions follows the chain as printed.

B1: LV0HV1: humanized Lym2 antibody, VL LV0 (SEQ ID NO: 33), VH HV1 (SEQ ID NO: 51) (antibody, V domains shown)
VH: EVQLVESGGGVVQPGRSLRLSCAASGFTFSNYYMAWVRQAPGKGLEWVATISYDGSSTYYRDSVKGRFTISRDNAKNSLYLQMNSLRAEDTATYYCARHRGYYYSGAGYFDYWGQGTMVTVSS
VL: DIVMTQTPLSLPVTPGESASISCRSSQSLEYSDGYTYLEWYLQKPGQSPQVLIYGVSNRFSGVPDRFSGSGSGTDFTLKISRVEAEDVGVYYCFQATHDPLTFGQGTKLEIK
B2: Lym2 antibody: rat anti-human CRTH2 monoclonal antibody from hybridoma Lym2, rat IgG2b; VH SEQ ID NO: 17, VL SEQ ID NO: 19 (antibody, listed as Rattus norvegicus, V domains shown)
VH: B1 VH with V11L, L18M, R19K, G42K, N77S, S78T, N84D, A88S, T117V
VL: DVVLTQTPVSLSVTLGDQASISCRSSQSLEYSDGYTYLEWYLQKPGQSPQVLIYGVSNRFSGVPDRFIGSGSGTDFTLKISRVEPEDLGVYYCFQATHDPLTFGSGTKLEIK

What was measured:
[1] = tested on: differentiation-induced human mast cells; test: Reactivity against differentiation-induced human mast cells; assay type: binding; settings: mast cells stimulated by IgE and crosslinking antibody; antibody 10 μg/mL; FIG. 14
Protocol: Mast cells were prepared according to the method described in Nature Protocols 2006, 1(4), 2178 to 2183. The mast cells after 11 weeks from the start of differentiation induction were washed with SM and seeded in a 96-well plate such that each well had 5×10^4 cells, and PE anti-human CD203c (E-NPP3) Antibody (Biolegend Inc.), Brilliant Violet 421 (trademark) anti-human CD117 (c-kit) Antibody (Biolegend Inc.), and Anti-Human Fc epsilon Receptor I alpha (FcεR1) PE (eBioscience) were added thereto to cause a reaction at 4° C. for 1 hour. After the cells were washed again, the cells were suspended with SM, and the fluorescent intensity was analyzed by flow cytometry (BD Biosciences, FACS CantoII). […]
After the cells were washed, streptavidin, Alexa Fluor 647 conjugate (Molecular Probes) diluted with SM was added to wells to which biotin-labeled LV0HV1, hu19A2 v52, ch8B1 v1, ch3C12, or ch31A5 was added, goat anti-Rat IgG Alexa 647 (Molecular Probes) diluted with SM was added to wells to which BM16 was added, and goat anti-Mouse IgG Alexa 647 (Molecular Probes) diluted with SM was added to wells to which 301108 was added at a final concentration of 10 μg/mL to cause a reaction at 4° C. for 40 minutes. After the cells were washed again, the cells were suspended with SM, and the fluorescent intensity was analyzed by flow cytometry (BD Biosciences, FACS CantoII).

cynomolgus monkey CRTH2 = test: Binding activity against Azami-Green fusion cynomolgus monkey CRTH2-expressing CHO/DG44 cells; settings: 2-30000 ng/mL, compared with human CRTH2; FIG. 21
Protocol: The Azami-Green fusion human CRTH2-expressing CHO/DG44 cells and the cynomolgus monkey CRTH2-expressing CHO/DG44 cells established in Example 24 were peeled using 0.02% EDTA solution (NACALAI TESQUE, Inc.), washed with PBS, and suspended with SM. Next, the cells were seeded in a 96-well plate such that each well had 2×10^5 cells, and humanized Lym2 antibody LV0HV1 or the anti-DNP IgG1 antibody at each of final concentrations 30000, 7500, 1875, 469, 117, 29, 7, and 2 ng/mL were added thereto to cause a reaction at 4° C. for 40 minutes.
After the cells were washed three times with SM, goat anti-Human IgG alexa 647 (Molecular Probes) diluted to a concentration of 10 μg/mL with SM was added thereto at 100 μL/well to perform a reaction at 4° C. for 40 minutes. The cells were washed with SM and resuspended with 100 μL of SM, and the fluorescent intensity was measured by flow cytometry (BD Biosciences, FACS CantoII).
The data was analyzed by FLowJo 7.65 (Tomy Digital Biology Co., Ltd.).

human eosinophils = test: Antagonist activity using shape change of human eosinophils as index (Example 19); assay type: cell-based; settings: antibody 10 μg/mL or small molecule 10 μM, DKPGD2 0.1-1000 nM; FIG. 16
Protocol: Eosinophils were separated from human peripheral blood in the same manner as in Example 11. The isolated human eosinophils were suspended with Dulbecco's phosphate buffered saline (hereinafter, referred to as D-PBS (−)) (NACALAI TESQUE, Inc.) and performed a reaction in a 5% CO2 incubator at 37° C. for 1 hour and 30 minutes. Thereafter, the cells were seeded in a 96-well plate at 2×10^5 cells/well using 10% FBS-containing RPMI1640. Next, an isotype control antibody [CELL LAB Rat IgG2b Isotype Control (Beckman Coulter Inc.)] at a final concentration of 10 μg/mL or Lym2 antibody; or small molecular CRTH2 antagonist 00000459 (Cayman Chemical) at a final concentration of 10 μM as a positive control, was added thereto to cause a reaction in a 5% CO2 incubator at 37° C. for 30 minutes.
Next, DKPGD2 (Cayman Chemical) at each of final concentrations of 0.1, 1, 10, 100, and 1000 nM was added thereto to cause a reaction in a 5% CO2 incubator at 37° C. for 60 minutes. After the reaction, the cells were washed twice with ice-cold PBS, Fixation Buffer (BD Biosciences) was added at 200 μL/well, and the resultant was suspended well and allowed to stand at 4° C. for 30 minutes. After that, the cells were washed twice with SM, and shape change of eosinophils was analyzed by flow cytometry (BD Biosciences, FACS CantoII).
The shape change of eosinophils was analyzed based on an increase in Forward Scatter Light (FSC) plot which is an index of the cell size, the cell surface area, or the cell diameter in the analysis using flow cytometry and the percentage (%) of eosinophils detected in the gate of high FSC was calculated based on the FSC of DKPGD2-untreated eosinophils.

Sequence of cynomolgus monkey CRTH2 (as listed by the source): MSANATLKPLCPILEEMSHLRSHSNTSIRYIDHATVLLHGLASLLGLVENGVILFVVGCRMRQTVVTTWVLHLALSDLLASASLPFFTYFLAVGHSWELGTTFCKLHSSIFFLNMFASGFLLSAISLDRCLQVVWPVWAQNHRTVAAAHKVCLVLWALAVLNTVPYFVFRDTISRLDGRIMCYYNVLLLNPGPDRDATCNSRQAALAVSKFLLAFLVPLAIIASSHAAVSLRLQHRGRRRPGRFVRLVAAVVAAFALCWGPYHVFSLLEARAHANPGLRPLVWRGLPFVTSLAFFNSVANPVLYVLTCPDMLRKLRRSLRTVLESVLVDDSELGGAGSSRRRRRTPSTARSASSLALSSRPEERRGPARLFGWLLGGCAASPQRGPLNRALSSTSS

| Molecule | reactivity against mast cells [1] | binding activity against monkey CRTH2 (cynomolgus monkey CRTH2) | inhibition of DKPGD2-dependent shape change of eosinophils (antagonist activity) (human eosinophils) |
| --- | --- | --- | --- |
| B1 | did not exhibit reactivity | substantially the same as each other | – |
| B2 | – | – | didn't inhibit |
